In patent US20240336926:
Read-outs that look alike come from different tables or passages of the source.

Key:
[1] = system: K-RAS G12D G12D, P01116-2; conditions: Nap-dU at all n positions; plate ELISA, buffer SB18, 37 C, R2 97.1
[2] = target: Human serum albumin (HSA) (Homo sapiens) (UniProt P02768); conditions: Nap-dU at all n positions, plate ELISA, buffer SB18, 37 C

GCATAAGTCCGGATGGCAGCTTTATGC [AD008] gave a Kd [1] of 287 nM.
“GCATAAGTCCGGATGGCAGCTTTATGCCGACC [AD007]” was tested, and the Kd ([2]; R2 97.0) was 536 nM.
“GACTAGCATAAGTCCGGATGGCAGCTTTATGCCG [AD006]” gave a Kd ([2]; R2 75.9) of 939 nM.
